Earlier results, collected in US9956303B2, “Anti-met therapy for previously diagnosed cancer patients” (GE HEALTHCARE LIMITED, priority 2011, dated 2018).

Legend:
[1] = biological target: T1, HGF (Homo sapiens, UniProt P14210); details: combination with ECX
T1 construct: host or cells: patients

[2] = biological target: T2, c-Met (Homo sapiens, UniProt P08581); design: host or cells: NSCLC patients' tumours; details: for median overall-survival: analysed by retrospective IHC of archive biopsy samples, p=0.002
[3] = in vivo
[4] = biological target: T2, c-Met; details: mouse, in vivo

T2 sequence (P08581 25-1390): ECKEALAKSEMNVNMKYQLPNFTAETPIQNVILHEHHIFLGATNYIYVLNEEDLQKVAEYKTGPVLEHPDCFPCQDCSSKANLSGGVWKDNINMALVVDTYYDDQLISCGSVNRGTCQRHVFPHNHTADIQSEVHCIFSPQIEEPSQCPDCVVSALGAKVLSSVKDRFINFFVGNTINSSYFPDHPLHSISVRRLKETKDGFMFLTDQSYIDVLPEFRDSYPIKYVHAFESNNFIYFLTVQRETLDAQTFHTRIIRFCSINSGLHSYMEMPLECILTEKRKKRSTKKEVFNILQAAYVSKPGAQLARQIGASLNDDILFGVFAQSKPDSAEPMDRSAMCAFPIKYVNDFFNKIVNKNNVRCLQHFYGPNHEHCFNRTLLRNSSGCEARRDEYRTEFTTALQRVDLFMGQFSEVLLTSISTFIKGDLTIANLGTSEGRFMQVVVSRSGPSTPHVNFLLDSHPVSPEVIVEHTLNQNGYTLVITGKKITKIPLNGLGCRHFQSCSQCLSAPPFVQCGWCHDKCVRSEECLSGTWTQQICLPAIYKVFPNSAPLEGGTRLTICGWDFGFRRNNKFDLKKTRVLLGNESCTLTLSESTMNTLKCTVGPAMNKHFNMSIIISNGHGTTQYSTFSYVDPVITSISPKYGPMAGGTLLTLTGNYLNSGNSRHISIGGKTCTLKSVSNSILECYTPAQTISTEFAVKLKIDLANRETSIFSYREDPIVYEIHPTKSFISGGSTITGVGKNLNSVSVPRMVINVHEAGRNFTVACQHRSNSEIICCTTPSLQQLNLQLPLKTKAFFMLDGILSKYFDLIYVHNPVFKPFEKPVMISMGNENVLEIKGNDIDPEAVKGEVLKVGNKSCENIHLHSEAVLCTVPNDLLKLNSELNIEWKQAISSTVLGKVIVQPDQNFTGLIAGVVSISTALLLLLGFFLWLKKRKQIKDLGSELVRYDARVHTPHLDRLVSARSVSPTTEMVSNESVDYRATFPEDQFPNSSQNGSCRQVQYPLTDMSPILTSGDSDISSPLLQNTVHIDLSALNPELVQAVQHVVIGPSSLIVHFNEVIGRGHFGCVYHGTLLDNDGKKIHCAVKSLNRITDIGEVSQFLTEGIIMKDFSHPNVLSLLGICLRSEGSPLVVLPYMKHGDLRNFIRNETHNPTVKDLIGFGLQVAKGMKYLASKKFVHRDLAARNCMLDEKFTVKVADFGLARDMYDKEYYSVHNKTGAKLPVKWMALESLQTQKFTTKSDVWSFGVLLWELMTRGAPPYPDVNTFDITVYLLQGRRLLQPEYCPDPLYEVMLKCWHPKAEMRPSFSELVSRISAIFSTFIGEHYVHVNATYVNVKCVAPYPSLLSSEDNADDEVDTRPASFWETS
T1 sequence (P14210 32-728): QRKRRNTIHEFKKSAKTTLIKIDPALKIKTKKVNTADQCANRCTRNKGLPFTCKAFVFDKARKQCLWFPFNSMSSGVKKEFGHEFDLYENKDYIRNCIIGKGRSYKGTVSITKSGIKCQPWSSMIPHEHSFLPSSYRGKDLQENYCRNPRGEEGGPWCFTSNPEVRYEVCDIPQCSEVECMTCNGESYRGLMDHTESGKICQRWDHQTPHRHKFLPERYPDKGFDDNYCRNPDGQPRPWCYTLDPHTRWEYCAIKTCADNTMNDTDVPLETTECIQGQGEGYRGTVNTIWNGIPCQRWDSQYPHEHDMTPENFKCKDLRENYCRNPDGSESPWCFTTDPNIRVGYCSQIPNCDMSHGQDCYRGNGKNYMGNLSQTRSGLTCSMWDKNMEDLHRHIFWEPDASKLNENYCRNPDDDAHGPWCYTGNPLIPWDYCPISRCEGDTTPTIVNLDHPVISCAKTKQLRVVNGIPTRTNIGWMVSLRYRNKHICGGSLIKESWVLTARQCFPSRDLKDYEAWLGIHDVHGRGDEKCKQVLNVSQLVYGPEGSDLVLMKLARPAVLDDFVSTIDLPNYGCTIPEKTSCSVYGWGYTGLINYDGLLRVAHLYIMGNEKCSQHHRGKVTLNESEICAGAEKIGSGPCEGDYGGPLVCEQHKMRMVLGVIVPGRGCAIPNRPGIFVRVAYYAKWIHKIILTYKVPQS

For rilotumumab: HGF antibody (Amgen), the “median overall survival vs placebo and ECX” value ([1]; c-Met high tumours (>50% tumour cells positive)) is given as “improved median overall survival” and the “overall survival vs placebo and ECX” value ([1]; c-Met low tumours (≤50% positive)) is given as “trend toward unfavourable overall survival”.

In the case of “MetMAb: a monoclonal antibody blocking c-Met (Roche)”, the “outcome, low c-Met expression” value ([2]; MetMAb in combination with Erlotinib compared to Erlotinib alone) is given as “worse outcome”, the median overall-survival [2] is given as 12.6 months and the “outcome, patient group as a whole” value ([2]; patients with high and low c-Met expression, MetMAb+Erlotinib vs placebo+Erlotinib) is given as “no differences between the two treatments”. The combined elimination half-life [3] was 8 to 12 days.

In the case of C#Cc1cccc(Nc2ncnc3cc(OCCOC)c(OCCOC)cc23)c1 [Erlotinib, reference compound], the median overall-survival [2] is listed as 3.8 months.

In the case of “MetMab™ labelled with ^76Br or ^89Zr: anti-c-Met antibody (MetMab) labelled with 76Br or 89Zr for molecular imaging of c-Met”, the “tumour uptake and clearance” value [4] is listed as “rapid tumour uptake and slow clearance”.
